For data set [1], the target named is T1, thrombin (endogenous, clotting assay in plasma or whole blood) (Homo sapiens, UniProt P00734;P00734 P00734:328-363,P00734:364-622). As to the kind of experiment: inhibition; PT at 10 uM.
The target of data set [2] is thrombin (endogenous, in vivo, ACT of whole blood) (Macaca fascicularis, UniProt A0A2K5UZ51;A0A2K5UZ51 A0A2K5UZ51:325-360,A0A2K5UZ51:361-619). As to the kind of experiment: inhibition; maximum ACT in monkey, IV bolus 0.46 umol/kg.
Data set [3] concerns the target T2, thrombin (alpha-thrombin) (Homo sapiens, UniProt P00734;P00734 P00734:315-363,P00734:364-622). As to the kind of experiment: filter.
For data set [4], the target named is T1, thrombin (endogenous, clotting assay in …). As to the kind of experiment: inhibition; ACT at 10 uM.
For data set [5], the target named is T2, thrombin (alpha-thrombin). As to the kind of experiment: filter; NB, non binder.
The target of data set [6] is T1, thrombin (endogenous, clotting assay in …). As to the kind of experiment: inhibition; ACT at 10 uM aptamer.
For data set [7] the target is unchanged. As to the kind of experiment: inhibition; PT at 10 uM, instrument maximum.
The target is the same in data set [8]. As to the kind of experiment: inhibition; PT at 10 uM. The source holds these as a separate data set.
Another data set concerns the target prothrombin (Homo sapiens, UniProt P00734 P00734:44-622). As to the kind of experiment: filter; 50 nM prothrombin. Conditions: tags: Athens Research. An outline of the steps: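 Trace 5′-³²P-labeled RNA clones incubated ±50 nM prothrombin with 0.1 mg/ml BSA in 1×DPBS (with Ca²⁺/Mg²⁺), 30 min. Bound RNA captured on nitrocellulose, free RNA on nylon; filters quantified by phosphorimaging. Single-point screen.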

The target in data set [9] is T2, thrombin (alpha-thrombin). As to the kind of experiment: filter; DPBS Ca2+ Mg2+, 0.1 mg/ml BSA.
The target of data set [10] is T1, thrombin (endogenous, clotting assay in …). As to the kind of experiment: inhibition; PT at 10 uM, parent 300 s.
A further data set concerns the target thrombin (Sus scrofa, UniProt Q19AZ8;Q19AZ8 Q19AZ8:316-364,Q19AZ8:365-622). As to the kind of experiment: filter; species cross-reactivity.
Data set [11] has as its target T2, thrombin (alpha-thrombin). As to the kind of experiment: filter; DPBS Ca Mg, BSA, RT.
Data set [12] addresses T2, thrombin (alpha-thrombin). As to the kind of experiment: filter; DPBS Ca2+ Mg2+, 0.1 mg/ml BSA, room temp.

In [1], ACTGCCTAGGATGGGTAGGGTGGTGGCAGT (ssDNA) [ARC2169.1] registered an activity of 300 s.
The term Kd denotes the concentration at which binding is half-saturated. Read a low Kd as higher affinity. In turn, ACTGCCTAGGTTGGGTAGGGTGGTGGCAGT (ssDNA) [ARC2169] returned an activity in data set [2] of 542 s. In [3], this molecule gave a dissociation constant (Kd) of 0.135 nM.
CGCCTAGGTTGGGTAGGGTGGTGGCG (ssDNA, 5'-hexylamine) [ARC2324]: in [4], the activity is 424 s.
For the molecule ACTGCCTAGGTUGGGTAGGGTGGTGGCAGT (XNA, 2'-OMe U12, rest DNA) [ARC2624], the binding result in [5] is “no binding”.
CGCTAGGTTGGGTAGGGTGGTGCG (ssDNA, 2'-OMe at positions 1, 2, 23, 24) [ARC2949] came in with an activity in data set [2] of 403 s.
For ACTGCATAGGTTGGGTAGGGTGGTGCAGT (ssDNA) [ARC2169.8], the activity in data set [1] amounted to 28.7 s.
TTTTTTCTGCCTAGGTTGGGTAGGGTGGTGGCAG (ssDNA) [ARC2194] came in with an activity in data set [6] of 462 s.
On the same count and under the same terms, for TTTCTGCCTAGGTTGGGTAGGGTGGTGGCAG (ssDNA) [ARC2193] the value was 545 s.
TCCCATCGAGCTCAGTCTAGGATGGGTAGGGTGGTGGCTGAGGATCGATC (ssDNA) [AMX(453)_B6] yielded an activity in data set [7] of 300 s.
ACTGCATAGGTTGGGTAGGGTGGTTGCAGT (ssDNA) [ARC2169.6] registered an activity in [1] of 300 s.
With TCCCCGATGTGTCAGCCTAGGGTGGTTAGGGTGGTGGCTGAGGATCGATC (ssDNA) [AMX(398)_C5], the activity in [8] came to 64.7 s. Moreover, in the data set with prothrombin, the binding signal was 19.2 % bound. The molecule also had a Kd in [9] of 2.2 nM.
TCCTGATCGGATGTGGTGGGTTATTGGTTTGGGTGGCTGAGGATCGATC (ssDNA) [AMX(453)_F6]: the activity in data set [7] was determined as 300 s.
As for TTTTTTCTGCCTAGGTTGGGTAGGGTGGTGGCAGTTTTTT (ssDNA) [ARC2196], the activity in data set [6] was determined as 441 s.
The molecule ACTGCCTAGGTTGGGTAGGATGGTGGCAGT (ssDNA) [ARC2169.4] showed an activity in data set [1] of 53.8 s.
In the case of ACTGCCTAGGTTGGGTAGGGTGGTGGCAGT (ssDNA, 5'-PEG 10 kDa via hexylamine) [ARC2323], the activity in data set [4] came to 514 s.
In [8], TCCCGATTGGAAAGCCTAGGATGGGTAGGGTGGTGGCTGAGGATCGATC (ssDNA) [AMX(399)_F12] came in with an activity of 74.9 s. The binding signal with prothrombin turned out to be 48.2 % bound. Binding in data set [9] was put at a Kd of 0.66 nM.
For TCCCGAGCGATACTGCCTAGGCTGGGTAGGGTGGTGGCTGAGGATCGATC (ssDNA) [AMX(398)_C10], in that order: 58.8 s, 40.9 % bound and 3.27 nM.
TCCCGAGGGACGACGCCTAGGTTGGGTAGGGTGGTGGCTGAGGATCGATC (ssDNA) [AMX(399)_C11] returned an activity in data set [8] of 52.6 s. Further, the binding signal in the data set with prothrombin turned out to be 41.6 % bound. The molecule also gave a Kd in [9] of 1.74 nM.
For TCCCGAGCGATATTGCCTAGGTTGGGTAGGGTGGTGGCTGAGGATCGATC (ssDNA) [AMX(454)_F2], in [7], the activity was 300 s.
Regarding TTTCTGCCTAGGTTGGGTAGGGTGGTGGCAGTTT (ssDNA) [ARC2195], the activity in [6] amounted to 438 s.
TCCCATCTTCTGTAGCCTAGGTTGGGTAGGGTGGTGGCTGAGGATCGATC (ssDNA) [AMX(398)_H5] had an activity in data set [8] of 71 s.
In the case of CCGGCTAGGTTGGGTAGGGTGGTGGCTGG (ssDNA) [Minimer 11], in data set [10], the activity came out at 27.9 s.
In the case of ACTGCCTAGGGTGGGTAGGGTGGTGGCAGT (ssDNA) [ARC2169.2], the activity in data set [1] was determined as 300 s.
ACTGCCTAGGTTGGGTAGGGUGGTGGCAGT (XNA, 2'-OMe U21, rest DNA) [ARC2633]: in data set [5], the binding result was “no binding”.
ACTGCATAGGTTGGGTAGGGTGGTGGCAGT (ssDNA) [ARC2169.7] yielded an activity in [1] of 300 s.
Turning to CGCCTAGGTTGGGTAGGGTGGTGGCG (ssDNA) [ARC2172], the binding result with thrombin is “binds”. The same molecule gave an activity in data set [2] of 527 s. In data set [3], the Kd came to 0.14 nM.
As for TCCCATGAACTCAGGGTAATTTTTTGGTGTGGGTGGCTGAGGATCGATC (ssDNA) [AMX(398)_D9], the activity in data set [8] is 80.8 s. Moreover, the binding signal with prothrombin worked out at 41.8 % bound. Moreover, the Kd in data set [9] was 5.64 nM.
ACTGCCTAGGTTGGGTAGGGTGGTGGCAGT (ssDNA, PS linkage between nt 1 and 2) [ARC2644] yielded a Kd in data set [11] of 0.183 nM.
For the molecule GGTTGGGTAGGGTGG (ssDNA) [Minimer 3], the activity in data set [10] is 25.8 s.
Molecule CGCCTAGGTTGGGTAGGGTGGTGGCG (ssDNA, 5'-PEG 10 kDa via hexylamine) [ARC2329] returned an activity in data set [4] of 664 s.
Regarding TCCCTGCAATTCGATCAGCAGGGGTGGTGTGGGTGGCTGAGGATCGATC (ssDNA) [AMX(395)_A1], the Kd in data set [12] stood at 6.4 nM.
The molecule CTGCCTAGGTTGGGTAGGGTGGTGGCAGTTTTTT (ssDNA) [ARC2192] returned an activity in data set [6] of 423 s.
For GGCCGATCAGGCTAGGTTGGGTAGGGTGGTGGCTGAGGATCGGCC (ssDNA) [Minimer 7], the activity in data set [10] stood at 83.3 s.

The record behind these values is US20090221680, “Aptamers that bind thrombin with high affinity” (published 2009).
